By solubility is commonly meant the dissolved amount per volume that the medium holds.

Series [1] in a line: Solubility of target protein or complex with and without the small solubility and stability enhancing tag. The series is classed as physicochemical.
Series [2] is described as follows: Solution stability (time until the sample precipitates) with and without the tag. The series is classed as physicochemical. The note with it: FAIM, 25° C.

B1: FAIM protein: 20 kDa apoptosis inhibitor in b cells, untagged (protein, UniProt Q9NVQ4 2-179, looked up)
Fas apoptotic inhibitory …: TDLVAVWDVALSDGVHKIEFEHGTTSGKRVVYVDGKEEIRKEWMFKLVGKETFYVGAAKTKATINIDAISGFAYEYTLEINGKSLKKYMEDRSKTTNTWVLHMDGENFRIVLEKDAMDVWCNGKKLETAGEFVDDGTETHFSIGNHDCYIKAVSSGKRKEGIIHTLIVDNREIPEIAS
Turning to B1, the “can be concentrated up to” value in series [1] (FAIM) is given as “up to 1 mM”. The “time until precipitation from solution / stable in solution” value in series [2] is “one week”.

B2: DFF45 NTD: N-terminal domain of human DNA fragmentation factor 45, unfolded when free (protein, UniProt O00273 1-116, looked up, fragment)
chain: MEVTGDAGVPESGEIRTLKPCLLRRNYSREQHGVAASCLEDLRSKACDILAIDKSLTPVTLVLAEDGTIVDDDDYFLCLPSNTKFVALASNEKWAYNNSDGGTAWISQESFDVDET
Turning to B2, the solubility in series [1] (FIG. 4 legend) came out at 200 µM.

Source of the values: US20030092885A1, “Solubility and stability enhancement tag for structural and ligand binding studies of proteins” (President and Fellows of Harvard College, priority 2001, published 2003).
